B1: D3P peptide with Glu for Tyr at position 1 (ERERERER backbone with phosphoserine at position 5) (peptide)
peptide: {FITC-Ahx}-ERER[pS]RER
B2: transportin 3 (TNPO3) (natural protein)
chain: MEGAKPTLQLVYQAVQALYHDPDPSGKERASFWLGELQRSVHAWEISDQLLQIRQDVESCYFAAQTMKMKIQTSFYELPTDSHASLRDSLLTHIQNLKDLSPVIVTQLALAIADLALQMPSWKGCVQTLVEKYSNDVTSLPFLLEILTVLPEEVHSRSLRIGANRRTEIIEDLAFYSSTVVSLLMTCVEKAGTDEKMLMKVFRCLGSWFNLGVLDSNFMANNKLLALLFEVLQQDKTSSNLHEAASDCVCSALYAIENVETNLPLAMQLFQGVLTLETAYHMAVAREDLDKVLNYCRIFTELCETFLEKIVCTPGQGLGDLRTLELLLICAGHPQYEVVEISFNFWYRLGEHLYKTNDEVIHGIFKAYIQRLLHALARHCQLEPDHEGVPEETDDFGEFRMRVSDLVKDLIFLIGSMECFAQLYSTLKEGNPPWEVTEAVLFIMAAIAKSVDPENNPTLVEVLEGVVRLPETVHTAVRYTSIELVGEMSEVVDRNPQFLDPVLGYLMKGLCEKPLASAAAKAIHNICSVCRDHMAQHFNGLLEIARSLDSFLLSPEAAVGLLKGTALVLARLPLDKITECLSELCSVQVMALKKLLSQEPSNGISSDPTVFLDRLAVIFRHTNPIVENGQTHPCQKVIQEIWPVLSETLNKHRADNRIVERCCRCLRFAVRCVGKGSAALLQPLVTQMVNVYHVHQHSCFLYLGSILVDEYGMEEGCRQGLLDMLQALCIPTFQLLEQQNGLQNHPDTVDDLFRLATRFIQRSPVTLLRSQVVIPILQWAIASTTLDHRDANCSVMRFLRDLIHTGVANDHEEDFELRKELIGQVMNQLGQQLVSQLLHTCCFCLPPYTLPDVAEVLWEIMQVDRPTFCRWLENSLKGLPKETTVGAVTVTHKQLTDFHKQVTSAEECKQVCWALRDFTRLFR

Non-standard residues stand in square brackets, D forms with d. No end group written: not given here. *: point of attachment. FITC = O=C1OC2(c3ccc(O)cc3Oc3cc(O)ccc32)c2ccc(NC(=S)*)cc21; pS = N[C@@H](COP(=O)(O)O)C(=O)O; Ahx = NCCCCCC(=O)O

The target in one experiment is TNPO3 (UniProt Q9Y5L0). Put plainly: fluorescence polarisation titration. The settings on record: reference: unmodified D23 peptide.
The target of the experiment “transportin 3 (TNPO3)” is B2. Put plainly: fluorescence polarisation. On the technique in general: In fluorescence polarisation assays a small probe gives low polarisation when free and higher when bound to something large.
Experiment [1] concerns the target GST-RSLD-WT, non-phosphorylated (expressed without CLK1) (human). As to the kind of experiment: pull-down.
In experiment [2] the target is SRSF1 RSP peptide (phosphorylated 8-mer). As to the kind of experiment: fluorescence polarisation.
For experiment [3], the target named is SRSF1 RS peptide (unmodified 8-mer). Put plainly: fluorescence polarisation.
For experiment [4], the target named is CPSF6 D1 peptide (unmodified 8-mer) (human). Put plainly: fluorescence polarisation.
The target of experiment [5] is ER/S peptide (D3 peptide with Glu for Tyr at position 1) (human) (UniProt Q16630). As to the kind of experiment: fluorescence polarisation.
Experiment [6] has as its target CPSF6 D2 peptide (unmodified 8-mer) (human). As to the kind of experiment: fluorescence polarisation.
In a further experiment the target is T1, CPSF6 D2P-D3 peptide (human, UniProt Q16630 509-528).
T1 peptide: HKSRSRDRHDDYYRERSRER
As to the kind of experiment: fluorescence polarisation.

In experiment [7] the target is B1. As to the kind of experiment: fluorescence polarisation.
The next experiment has as its target T2, CPSF6 D23-4Glu peptide (human, UniProt Q16630 509-528, K510E | R512E | R522E | R524E, FITC-Ahx label).
T2 peptide: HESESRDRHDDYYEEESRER
Put plainly: fluorescence polarisation.

The target in experiment [8] is T3, ERERERER backbone with Tyr at position 1.
T3 peptide: {FITC-Ahx}-YRERERER
Put plainly: fluorescence polarisation.

For orientation: Kd means the constant that tells how readily two partners part at equilibrium. A low value points to a tighter complex.

Chain of GST-RSLD-WT, non-phosphorylated (expressed without CLK1) (human) (Q16630 whole entry): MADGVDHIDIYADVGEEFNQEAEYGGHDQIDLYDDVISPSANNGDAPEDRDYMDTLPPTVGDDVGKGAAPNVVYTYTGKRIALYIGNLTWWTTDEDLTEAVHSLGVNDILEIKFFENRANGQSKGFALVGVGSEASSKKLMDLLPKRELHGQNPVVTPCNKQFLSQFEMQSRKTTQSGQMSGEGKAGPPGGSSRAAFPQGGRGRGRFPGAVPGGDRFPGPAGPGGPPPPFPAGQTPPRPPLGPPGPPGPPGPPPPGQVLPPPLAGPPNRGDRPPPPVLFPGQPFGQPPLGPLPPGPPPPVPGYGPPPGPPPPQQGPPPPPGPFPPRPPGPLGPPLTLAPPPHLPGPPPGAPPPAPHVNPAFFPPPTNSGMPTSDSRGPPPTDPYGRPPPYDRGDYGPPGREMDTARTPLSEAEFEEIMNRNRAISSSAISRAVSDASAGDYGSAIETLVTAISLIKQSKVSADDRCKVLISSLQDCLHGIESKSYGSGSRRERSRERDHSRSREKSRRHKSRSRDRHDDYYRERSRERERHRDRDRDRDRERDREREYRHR
Chain of ER/S peptide (D3 peptide with Glu for Tyr at position 1) (human) (Q16630 whole entry, looked up, tested part not stated): as the sequence (Q16630 whole entry) above

“CPSF6 D2-D3 region 20-mer (D23) (from UniProt Q16630) D2P-D3P peptide”: the fold change entry with TNPO3 (sites S511,S513,S525) was “stronger”.
Turning to “CPSF6 D2-D3 region 20-mer (D23) (from UniProt Q16630) D2-D3P peptide”, in the experiment with TNPO3 (sites S525), the fold change entry was “stronger”.
Take “CPSF6 D2-D3 region 20-mer (D23) (from UniProt Q16630) D2P-D3 peptide”: the fold change entry with TNPO3 (sites S511,S513) was “stronger”.
In turn, B1 had a Kd with transportin 3 (TNPO3) of 17.1 µM.
In the case of B2, the percent of input TNPO3 recovered in [1] amounted to 30%. Moreover, the Kd in experiment [2] was 1.3 µM; in experiment [3] it was above 1000 µM; in [4], 141 µM; in [5], above 1000 µM; in [6], above 1000 µM. In the experiment with CPSF6 D2P-D3 peptide, the “fold increase of affinity against the D23 peptide” value is around 3.3 fold. Besides, the “fold increase of affinity against the ERERERER backbone” value in experiment [7] was around 5 fold; in experiment [8], around 10 fold. Also, in the experiment with CPSF6 D23-4Glu peptide, the “fold reduction of affinity against the D23 peptide” value was around 25 fold.
